The results in this text go back to patent US20230051715A1 (MABWELL THERAPEUTICS, published 2023).

Positions count from the first letter of the chain named. Names and notes keep the numbering of the source.

The target of assay [1] is T1, human C1s mutant M6 (P280A, E282K & K336G) (human, UniProt P09871 16-688).
T1 construct: The entry is the mutant itself
T1 sequence: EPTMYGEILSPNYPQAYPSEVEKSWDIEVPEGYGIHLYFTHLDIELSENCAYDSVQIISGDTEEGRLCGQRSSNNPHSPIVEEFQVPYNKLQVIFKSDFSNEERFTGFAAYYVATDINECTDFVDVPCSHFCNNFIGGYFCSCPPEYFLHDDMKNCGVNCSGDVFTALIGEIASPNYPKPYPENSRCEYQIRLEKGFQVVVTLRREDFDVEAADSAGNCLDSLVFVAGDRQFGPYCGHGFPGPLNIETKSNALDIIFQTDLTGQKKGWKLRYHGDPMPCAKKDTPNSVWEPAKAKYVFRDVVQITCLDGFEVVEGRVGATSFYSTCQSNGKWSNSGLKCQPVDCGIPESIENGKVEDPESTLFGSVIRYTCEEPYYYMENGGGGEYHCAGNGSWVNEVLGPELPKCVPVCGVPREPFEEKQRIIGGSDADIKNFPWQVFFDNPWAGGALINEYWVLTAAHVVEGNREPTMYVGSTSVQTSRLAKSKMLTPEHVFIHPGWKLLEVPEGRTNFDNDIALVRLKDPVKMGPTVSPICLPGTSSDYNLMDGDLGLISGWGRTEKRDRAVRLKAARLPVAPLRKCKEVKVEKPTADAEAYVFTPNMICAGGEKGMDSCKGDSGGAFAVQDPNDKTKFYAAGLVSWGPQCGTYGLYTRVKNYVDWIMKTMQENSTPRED
Description: ELISA, plate coated with human C1s mutant M6: P280A, E282K, K336G, OD450nm. The method, then: ELISA was carried out by first coating 96-well plates with 200 ng/well of full-length or truncated C1s proteins overnight. The next morning, plates were blocked with SuperBlock T20 blocking buffer (Thermo Scientific 37536) for 1 h with gentle shaking. Then, various concentrations of anti-C1s antibodies diluted in SuperBlock T20 blocking buffer were added to the plates and incubated for 1 h with gentle shaking. Mouse IgG (Sigma-Aldrich 15381) and human IgG1 (BioXCell BP0297) were used as negative controls. The plates were washed before incubating with HRP conjugated secondary antibodies diluted in SuperBlock T20 blocking buffer (goat anti-mouse IgG (H+L) cross-adsorbed secondary antibody HRP (Invitrogen G-21040) or goat anti-human IgG antibody, HRP conjugate (Millipore AP309P)) for 1 h with gentle shaking. At last, the plates were washed and color developed with ELISA liquid HRP substrate (Sigma-Aldrich), followed by stopping the reaction with addition of 1M H₂SO₄ in the same volume as the ELISA liquid substrate. Bound antibody was measured by absorbance at OD₄₅₀ₙₘ.
Binding of anti-C1s antibodies to mutants M1-M20 of human C1s was measured by ELISA as described in Example 4, and results are shown in FIGS. 6B-6U. […]
(In an ELISA, binding on a coated surface is turned into a signal by an enzyme label.)

Assay [2] concerns the target T2, active human C1s (CompTech A104 C1s Enzyme) (human, UniProt P09871 16-688).
T2 construct: also called human active C1s; active C1s protein
T2 sequence (looked up): T1 sequence with A280P, K282E, G336K
Put plainly: BLI (Octet RED96e), antibody on AHC biosensor; HuC1s Form: Active; R^2 0.9998. The method, then: Bio-Layer Interferometry technology was used for anti-C1s antibody affinity measurement and binding kinetics determinations with OCTET® RED96e system (Sartorius AG). Pre-hydrated Anti-Human IgG Fc Capture (AHC) biosensors were first equilibrated in 1×KB (Kinetic Buffer, 1×PBS pH 7.4+0.02% Tween-20+0.1% BSA) for 120 sec for the first baseline, followed by loading with […] anti-C1s antibody (2-7, FIG. 3A; 2-8, FIG. 3B; hz2-7(H1L2), FIG. 3C; hz2-8(H1L2 G80A/T82A, FIG. 3D) onto AHC biosensors for 240 sec. Then, the second baseline signal was established for 120 sec before association with various concentrations of active human C1s (CompTech A104) for 240-360 sec. At last, analyte was dissociated in 1×KB for 360 sec. Anti-C1s antibodies 2-7 and 2-8 were also analyzed against human C1s proenzyme (CompTech A103) (data not shown). Data analysis was carried out using OCTET® Data Analysis HT Software (Sartorius AG). KD, kₒₙ, koff and R² values were calculated for each antibody and target combination, as summarized in FIG. 3E showing high affinity binding with KD values in the low nanomolar to picomolar range.
On the technique in general: BLI is a label-free optical method that tracks binding on a fibre tip over time.

B1: Anti-C1s antibody hz2-7(H1L2) (antibody, V domains shown)
VH: EVQLLESGGGLVQPGGSLRLSCAASGFTFSNYFMNWVRQAPGKGLEWVSEIRLKFTNYATHYADSVKGRFTISRDDSKSTLYLQMNSLRAEDTAVYYCTRDYGSRNGYFDYWGQGTLVTVSS
VL: DIVMTQTPLSLPVTPGEPASISCRSSKSLLHSNGNTFLYWFLQKPGQSPQLLIYRMSNLASGVPDRFSGSGSGTDFTLKISRVEAEDVGVYYCMQHLEYPYTFGGGTKLEIKR
notes: Humanized, human IgG1 / kappa; also called hz2-7(1L2)
A word on the EC50: it is the concentration needed to bring the measured effect to its halfway point. For orientation: Kd means the free concentration of one partner at which half of the binding sites on the other are occupied at equilibrium, for simple one-to-one binding. As usually defined, the koff is the first-order rate constant of dissociation. Broadly, the kon is a measure of how fast the partners come together. On to B1, for which, in assay [1], the EC50 was determined as 0.013 µg/mL. In addition, in assay [2], the dissociation constant (Kd) amounted to 0.24 nM, the off-rate constant (koff) is 7e-05 s⁻¹ and the association rate constant (kon) stood at 290000 M⁻¹ s⁻¹.

B2: Anti-C1s antibody hz2-8 (H1L2 G80A/T82A) (antibody, V domains shown)
VH: QVQLVQSGAEVKKPGASVKVSCKASGFNIKEYYMHWVRQAPEQGLEWMGWIDPENADAIYAQKFQGRVTITADTSTNTAYMELSSLRSEDTAVYYCARSRLFFAYWGQGTLVTVSS
VL: DIQMTQSPKSLSASVGDRVTITCRASQDVRTALDWYQQKPGQSPKLLIYSASYRYSGVPSRFSGSGSGTDFTLTISSLQPEDFATYYCQQQYTTPYTFGQGTKLEIKR
notes: Humanized variant with G80A and T82A in HC CDR2 (already in the entry), human IgG1 / kappa
B2 showed a 50% effective concentration (EC50) in assay [1] of 0.06 µg/mL. Further, in assay [2], the Kd worked out at 1.2 nM, the dissociation rate constant (koff) was 0.00029 s⁻¹ and the association rate constant (kon) amounted to 240000 M⁻¹ s⁻¹.
